# “Also recorded” adds a separate entry of the source.
# B1: pp296: Modified PlySs2 lysin, SEQ ID NO: 6: L92W, V104S, V128T, Y137S, Y164K, N184D, S198Q (protein)
# chain: MTTVNEALNNVRAQVGSGVSVGNGECYALASWYERMISPDATVGLGAGVGWVSGAIGDTISAKNIGSSYNWQANGWTVSTSGPFKAGQIVTWGATPGNPYGHVSIVEAVDGDRLTILEQNYGGKRYPTRNYYSAASSRQQVVHYITPPGTVAQSAPNLAGSRSKRETGTMTVTVDALNVRRAPDTSGEIVAVYKRGEQFDYDTAIIDVNGYAWVSYIGGSGKRNYVATGATKDGKRFGNAWGTFK
# How the values were obtained:
# [1] = system: 5 MRSA strains and 5 MSSA strains; assay: Checkerboard synergy assay with daptomycin or vancomycin; format: cell-based, Staphylococcus aureus; details: MRSA (JMI-41293) strain
# bacterial inoculum = assay: Thermal stability: in vitro lytic assay after 30 min heating; format: cell-based
# Description: Thermal stability was assessed by incubating the lysin polypeptides at a fixed concentration of 128 μg/mL in Tris buffer pH 8.0 for 30 minutes at various elevated temperatures (within the range of about 30° C. to 60° C.) prior to assessing activity. The samples were then cooled for 2 minutes on ice and activity was then assessed by an in vitro lytic assay by exposing a bacterial inoculum (OD600 ˜0.5-1.2) in Tris buffer to a 2-fold dilution series of each sample (diluted from 128-0.25 μg/mL across the x-axis of a 96 well microtiter plate). The loss of optical density was followed for 15 minute at room temperature, and the specific activity was determined based on the enzyme concentration enabling a 50% loss of optical density at 15 minutes. The enzyme activities of each variant were compared to the wild-type, CF-301 enzyme (GMT-grade PlySs2 protein) to calculate the % of Wild-Type Activity over a range of temperatures.
# The thermal stability of wild-type, CF-301 was arbitrarily set at 100. The results for exemplary modified lysin polypeptides are set forth below in Table 5 at a single temperature of 37° C.:
# In another experiment, the thermal stability of modified lysin polypeptides was assessed at different temperatures and compared with that of wild-type, CF-301 (set at 100).
# [2] = system: 1-day old biofilms formed by MRSA isolates; assay: Minimum Biofilm Eradication Concentration (MBEC), MRSA biofilms; format: cell-based, Staphylococcus aureus; details: 24 hours treatment
# Description: (§1) In some embodiments, the present modified lysin polypeptides are capable of reducing a biofilm. […] Biofilms are then washed and treated with e.g., a 2-fold dilution series of the lysin in TSBg at e.g., 37° C. for 24 hours. After treatment, wells are washed, air-dried at e.g., 37° C. and stained with e.g., 0.05% crystal violet for 10 minutes. After staining, the biofilms are destained in e.g., 33% acetic acid and the OD600 of e.g., extracted crystal violet is determined. The MBEC of each sample is the minimum lysin concentration required to remove >95% of the biofilm biomass assessed by crystal violet quantitation.
# (§2) The anti-biofilm activity of pp296 was determined against 1-day old biofilms formed by 17 MSSA and 20 MRSA isolates in a 96-well broth microdilution format. The Minimum Biofilm Eradication Concentration (MBEC) values for pp296, compared to wild-type PlySs2 (CF-301), were determined by the following standard methodology. Bacteria were suspended in PBS (0.5 McFarland Units), diluted 1:100 in TSBg (66% tryptic soy broth, 0.2% glucose), added as 0.15 mL aliquots to 96-well polystyrene microplates, and incubated for 24 hours at 37° C. Biofilms were then washed and treated with a 2-fold dilution series of CF-301 or pp296 in TSBg at 37° C. for 24 hours. All samples were examined in triplicate. After treatment, wells were washed, air-dried at 37° C., and stained with 0.05% crystal violet for 10 min The loss of biofilm biomass was assessed visually, and crystal violet was quantitated by solubilization in 33% (vol/vol) acetic acid. The optical density of 600 nm (OD600) was determined using a SpectraMax M3 Multimode microplate reader. The MBEC of each sample was the minimum lysin concentration required to remove >95% of the biofilm biomass assessed by crystal violet quantitation.
# [3] = Toxicity screening in mice; format: in vivo; details: 30 mg/kg
# Description: Selected modified lysin polypeptides from Table 3 were subjected to further testing as described in more detail in subsequent Examples. […] The same 30 mg/kg dose of PlySs2 caused a 100% incidence of adventitial findings, which is an indication of potential toxicity.
# [4] = 7-day repeated 2-hour infusion toxicity study in rats; format: in vivo, Sprague Dawley rats; details: rats, 0.5, 2.5, or 10 mg/kg/day, 7 consecutive days
# Description: The objective of this study was to evaluate the potential toxicity and toxicokinetic profile of modified lysin polypeptide pp296 when administered daily by 2-hour infusion to Sprague Dawley rats for 7 consecutive days.
# Experimental procedures, animals and treatment are summarized below in Table 11.
# All surviving animals were submitted for necropsy on Day 8 (Terminal Euthanasia). Necropsies were performed and organ weights were collected by Testing Facility personnel. Statistical analysis of organ weight data was performed by the testing facility engaged on a fee-for-service commercial basis. Tissues required for microscopic evaluation were trimmed, processed routinely, embedded in paraffin, and stained with hematoxylin and eosin by Charles River Laboratories Ashland, LLC. Microscopic evaluation was conducted by a board-certified veterinary pathologist on select protocol-specified tissues from all animals in Groups 1 through 4 and all gross lesions from all animals. Tissues were evaluated by light microscopy.
# MSSA isolates = assay: MIC in CAMHB-HSD against MSSA isolates; format: cell-based, Staphylococcus aureus; details: 51 MSSA isolates
# Description: In vitro activity of the modified lysin polypeptide pp296 was assessed against a range of 51 MSSA and 51 MRSA isolates in cation-adjusted Mueller Hinton broth supplemented with 25% horse serum and 0.5 mM DTT (CAMHB-HSD) and compared to WT GMP grade PlySs2 (CF-301). CF-301 and pp296 were each diluted into CAMHB-HSD. For each lysin, the dilution series is set up such that, after a two-fold dilution of each well of the plate, the final concentrations contained: 64, 32, 16, 8, 4, 2, 1, 0.5, 0.25, and 0.125 μg/mL. Each lysin was tested in duplicate against each strain. Preparations were incubated overnight. Growth was visualized as a growth button approximately 2 mm in diameter. The highest dilution that yielded ≥80% growth inhibition was called the minimum inhibitory concentration (MIC). The activity of pp296 was very similar, within one 2-fold dilution, to that of CF-301, as shown below in Table 7.
# [5] = system: 1-day old biofilms formed by MSSA isolates; assay: Minimum Biofilm Eradication Concentration (MBEC), MSSA biofilms; format: cell-based, Staphylococcus aureus; details: 24 hours treatment
# Description: as §1, §2
molecule,measurement,setting,value
B1,FIC index,[1],0.75
same,% Wild-Type Activity at 37° C.,"bacterial inoculum; 30 minutes at 37° C., 128 μg/mL in Tris buffer pH 8.0, CF-301 set at 100",205%
same,"% of CF-301 wild-type, 37° C.","bacterial inoculum; 30 minutes at 37° C., another experiment",204.6%
same,"% of CF-301 wild-type, 40° C.",bacterial inoculum; 30 minutes at 40° C.,243.1%
same,"% of CF-301 wild-type, 42° C.",bacterial inoculum; 30 minutes at 42° C.,141.2%
same,"% of CF-301 wild-type, 45° C.",bacterial inoculum; 30 minutes at 45° C.,40.1%
same,"% of CF-301 wild-type, 48° C.",bacterial inoculum; 30 minutes at 48° C.,0.0%
same,"% of CF-301 wild-type, 50° C.",bacterial inoculum; 30 minutes at 50° C.,0.0%
same,MBEC50,[2],0.031 µg/mL
same,MBEC90,[2],0.06 µg/mL
same,MBEC Range,[2],0.01 to 0.25 µg/mL
same,Adventitial findings (lesions),[3],no adventitial findings; also recorded: did not result in adventitial lesions
same,Toxicity findings,[4]; 2-hour infusion,"No toxicity was found; also recorded: no pp296-related gross, microscopic, or organ weight findings"
same,Unscheduled deaths,[4],no unscheduled deaths
same,MIC50,MSSA isolates,1 µg/mL
same,MIC90,MSSA isolates,1 µg/mL
same,MIC Range,MSSA isolates,0.5 to 2 µg/mL
same,MBEC50,[5],0.063 µg/mL
same,MBEC90,[5],0.25 µg/mL
same,MBEC Range,[5],0.01 to 1 µg/mL

# From patent publication US20210032294A1, “MODIFIED PlySs2 LYSINS AND USES THEREOF” (CONTRAFECT CORPORATION, priority 2018, published 2021)
